Here are results for one substance from PMC9926122.

The assay concerns the target recombinant EB1 (HS-AFM and microtubule experiments) (human) (UniProt Q15691).

recombinant EB1 (HS-AFM and microtubule experiments) (human), sequence (Q15691 whole entry): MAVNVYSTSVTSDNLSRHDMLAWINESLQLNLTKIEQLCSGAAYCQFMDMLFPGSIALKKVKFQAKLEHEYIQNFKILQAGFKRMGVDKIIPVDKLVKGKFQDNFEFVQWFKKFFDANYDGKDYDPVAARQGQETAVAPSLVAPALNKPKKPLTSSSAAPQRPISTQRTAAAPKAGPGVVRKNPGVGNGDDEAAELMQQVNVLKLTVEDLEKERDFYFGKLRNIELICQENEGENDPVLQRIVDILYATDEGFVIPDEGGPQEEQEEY
6xHis-tagged WT Ska1, sequence (Q96BD8 whole entry): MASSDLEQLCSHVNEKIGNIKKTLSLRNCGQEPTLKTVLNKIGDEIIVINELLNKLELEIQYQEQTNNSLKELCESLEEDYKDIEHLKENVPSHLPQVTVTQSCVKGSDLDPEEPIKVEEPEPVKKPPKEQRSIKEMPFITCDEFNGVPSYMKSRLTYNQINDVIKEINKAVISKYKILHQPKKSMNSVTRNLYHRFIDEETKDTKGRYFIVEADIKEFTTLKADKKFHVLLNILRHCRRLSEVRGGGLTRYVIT

On to “6xHis-tagged WT Ska1 (from UniProt Q96BD8 1-255) (natural protein)”, for which the localization of Ska1 on prepolymerized MTs in vitro in the presence of EB1 (1 uM), fluorescence microscopy: WT Ska1 against Ska1 ΔSHLP (0.5 uM each) is 1.6 fold.
